US20030219825A1

Target: melanocortin-1 receptor (MC1R) (human) (UniProt Q01726)
Assay: cell-based or functional assay
Conditions: scale: response value

Sequence of UniProt Q01726 (Q01726 whole entry): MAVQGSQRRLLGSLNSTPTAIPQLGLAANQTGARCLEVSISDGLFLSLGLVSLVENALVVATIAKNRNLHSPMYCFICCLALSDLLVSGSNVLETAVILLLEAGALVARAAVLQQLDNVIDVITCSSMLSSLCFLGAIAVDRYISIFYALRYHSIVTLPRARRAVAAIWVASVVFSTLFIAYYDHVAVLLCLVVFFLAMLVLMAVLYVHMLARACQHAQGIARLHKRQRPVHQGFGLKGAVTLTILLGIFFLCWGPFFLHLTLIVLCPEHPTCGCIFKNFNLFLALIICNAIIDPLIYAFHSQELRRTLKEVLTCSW

Question: How did the maximal response value (z value minus background z value, luminescence, 6xCRE-luciferase reporter lawn) turn out when “4-L-norleucine-7-D-phenylalanine-alpha melanocyte stimulating hormone (from UniProt P01189 138-150) (peptide)” was run?
Answer: 25
